Source: patent US20110123525A1 (THROMBOGENICS N V, published 2011)

T1: recombinant human PlGF-2 (produced in Pichia) (human, UniProt P49763-3 19-170, limits assumed)
T1 construct: also called huPlGF-2; rhuPlGF-2
T1 sequence (looked up): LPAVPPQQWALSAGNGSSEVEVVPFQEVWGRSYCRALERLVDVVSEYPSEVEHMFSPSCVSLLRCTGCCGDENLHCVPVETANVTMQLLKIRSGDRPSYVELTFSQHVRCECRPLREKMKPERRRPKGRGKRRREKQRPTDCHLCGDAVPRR

T2: human PlGF-1 (human, UniProt P49763-2 19-149, limits assumed)
T2 construct: also called huPlGF-1; huPlGF
T2 sequence (looked up): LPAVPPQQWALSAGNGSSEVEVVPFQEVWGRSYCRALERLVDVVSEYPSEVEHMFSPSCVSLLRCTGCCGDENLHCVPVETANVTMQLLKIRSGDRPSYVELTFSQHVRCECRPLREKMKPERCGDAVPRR


Assays:
[1] = biological target: T1, recombinant human PlGF-2 (produced in …); assay: Biacore, rhuPlGF-2 (Pichia) immobilized, antibody injected
human PlGF-1 [2] = biological target: T2, human PlGF-1; assay: ELISA, plate coated with huPlGF-1, detection with anti-huIgG-HRP (Fab specific), OPD
Procedure: ELISA plates were coated ON with […] huPlGF-1 in PBS, 100 μL/well, 4° C. After blocking with 1% BSA, 1 hr, RT, a dilution series of humanized Fab16D3 was added, 100 μL/well, the antibody fragment was allowed to bind for 1 hr, RT. Bound humanized Fab16D3 was detected with anti-huIgG-HRP(Fab specific) (100 μL/well, 1 hr RT). The assay was developed with OPD.

human PlGF-1 [3] = biological target: T2, human PlGF-1; assay: ELISA, plate coated with 1 µg/ml huPlGF-1, detection with murine anti-HA and goat anti-murine IgG-HRP, OPD
Procedure: ELISA plates were coated ON with 1 μg/ml huPlGF-1 in PBS, 200 μL/well, 4° C. After blocking with 1% BSA, 1 hr, RT, a dilution series of scFv16D3/humanized scFv16D3 was added, 200 μL/well, the antibody fragment was allowed to bind for 1 hr, RT. Bound scFv16D3 was detected with murine anti-HA (180 μL/well, 1 hr RT) followed by incubation with goat-anti-murine IgG-HRP (Sigma), 170 μL/well, 1 hr, RT. The assay was developed with OPD.

Binder | Kd [1] [nM] | EC50 (read off the curve) (human PlGF-1 [2]) [µg/mL] | EC50 (read off the curve) (human PlGF-1 [3]) [µg/mL]
murine monoclonal anti-human PlGF antibody 16D3 (antibody, V domains shown, Whole mouse antibody from hybridoma LMBP 6399CB; also called anti-hPlGF; hp16D3mousecomplAB) VH: QIQLQQSGPELVKPGASVKISCKASGYTFTDYYINWVKLKPGQGLEWIGWIYPGSGNTKYNEKFKGKATLTIDTSSSTAYMQLSSLTSEDTAVYFCVRDSPFFDYWGQGTTLTVSS VL: DIVLSQSPSSLAVSAGEKVTMRCKSSQSLLNSGMRKSFLAWYQQKPGQSPKLLIYWASTRESGVPDRFTGSGSGTDFTLTISSVQAEDLAVYYCKQSYHLFTFGSGTKLEIK | 0.29 |  | 
humanized Fab 16D3 (Fab, V domains shown, also called hp16D3mutcomplFab; hp16D3mutcmplFab) VH: QVQLQQSGAELVKPGASVKISCKASGYTFTDYYINWVKLAPGQGLEWIGWIYPGSGNTKYNEKFKGKATLTIDTSSSTAYMQLSSLTSEDTAVYFCVRDSPFFDYWGQGTLLTVSS VL: DIVLTQSPDSLAVSLGERVTMNCKSSQSLLNSGMRKSFLAWYQQKPGQSPKLLIYWASTRESGVPDRFTGSGSGTDFTLTISSVQAEDVAVYYCKQSYHLFTFGSGTKLEIK | 0.131 | ~90 | 
humanized antibody 16D3 IgG4 kappa (antibody, V domains shown, Expressed transiently in HEK 293 cells; also called hu16D3; Hu16D3 IgG4κ) VH: QVQLQQSGAELVKPGASVKISCKASGYTFTDYYINWVKLAPGQGLEWIGWIYPGSGNTKYNEKFKGKATLTIDTSSSTAYMQLSSLTSEDTAVYFCVRDSPFFDYWGQGTLLTVSS VL: DIVLTQSPDSLAVSLGERVTMNCKSSQSLLNSGMRKSFLAWYQQKPGQSPKLLIYWASTRESGVPDRFTGSGSGTDFTLTISSVQAEDVAVYYCKQSYHLFTFGSGTKLEIK | 0.161 |  | 
humanized scFv of 16D3 (scFv, also called humanized scFv16D3; scFvhp16D3mut) scFv: QVQLQQSGAELVKPGASVKISCKASGYTFTDYYINWVKLAPGQGLEWIGWIYPGSGNTKYNEKFKGKATLTIDTSSSTAYMQLSSLTSEDTAVYFCVRDSPFFDYWGQGTLLTVSSGGGGSGGGGSGGGGSDIVLTQSPDSLAVSLGERVTMNCKSSQSLLNSGMRKSFLAWYQQKPGQSPKLLIYWASTRESGVPDRFTGSGSGTDFTLTISSVQAEDVAVYYCKQSYHLFTFGSGTKLEIKGSYPYDVPDYAGSHHHHHH | 0.195 |  | ~0.1
scFv of murine antibody 16D3 (scFv, also called scFv16D3; scFv hp16D3) scFv: QIQLQQSGPELVKPGASVKISCKASGYTFTDYYINWVKLKPGQGLEWIGWIYPGSGNTKYNEKFKGKATLTIDTSSSTAYMQLSSLTSEDTAVYFCVRDSPFFDYWGQGTTLTVSSGGGGSGGGGSGGGGSDIVLSQSPSSLAVSAGEKVTMRCKSSQSLLNSGMRKSFLAWYQQKPGQSPKLLIYWASTRESGVPDRFTGSGSGTDFTLTISSVQAEDLAVYYCKQSYHLFTFGSGTKLEIKGSYPYDVPDYAGSHHHHHH |  |  | ~0.1
